# Data published in the RNAGym collection of RNA variant scans (doi:10.1021/acssynbio.7b00057).
# B1: Pistol ribozyme (parent)
# chain: GGGUCGUUGUUCCAUAAUCGCGUGGAUAUGGCACGCAAGUUUCUACCGGGCACCGUAAAUGUCCGACUGGAGCCGUUCGGGCGGCUAUAAACAGACCUCAGGCCCGAAGCGUGGCGGCACCUGCCGCCGGUGGUAAAAAAGAUCGGAAGAGCACACGUCU
# Variants of: B1
# Assay: aptazyme ON/OFF ratio, guanine; higher = stronger switching; co-transcriptional cleavage with and without guanine
row,Variant,aptazyme ON/OFF ratio
1,U7G G9A U10G U11C C13A,1.08
2,U7G G9A U10G U11C C13G,1.11
3,U7G G9A U10G U11C C13U,1.08
4,U7C U11G C12G C13U,1.15
5,U7C U11G C12G C13G,1.27
6,U7C U11G C12G C13A,1.14
7,U7G G9A U10C U11A C12G,1.15
8,U7G G9A U10C U11A C12A,1.1
9,U7G G9A U10C U11A C12U,1.18
10,U7G G9A U10C U11A C12A C13A,1.11
11,U7G G9A U10C U11A C12A C13G,1.09
12,U7G G9A U10C U11A C12A C13U,1.09
13,U7G G9C U10A,3.1
14,U7G G9A U11A C12G C13U,1.12
15,U7G G9A U11A C12G C13G,1.13
16,U7G G9A U11A C12G C13A,1.08
17,U7G G9A U10G U11G C12A C13U,1.1
18,U7G G9A U10G U11G C12A C13A,1.03
19,U7G G9A U10G U11G C12A C13G,1.09
20,U7G G9A U10A U11G C13A,1.09
21,U7G G9A U10A U11G C13G,1.13

row,Variant,aptazyme ON/OFF ratio
1,U7G G9A U10A U11G C13U,1.14
2,U7G G9A U11C C12A C13G,1.14
3,U7G G9A U11C C12A C13U,1.26
4,U7G G9A U11C C12A C13A,1.1
5,U7G G9A U10C U11C C12G,1.17
6,U7G G9A U10C U11C C12A,1.26
7,U7G G9A U10C U11C C12U,1.07
8,U7G G9A U10A U11C,1.09
9,U7G G9A U10A U11A,2.42
10,U7G G9A U10A U11G,2.05
11,U7G G9A U10A C12A C13U,1.28
12,U7G G9A U10A C12A C13A,1.06
13,U7G G9A U10A C12A C13G,1.14
14,U7G G9C C12U C13U,1.33
15,U7G G9C C12U C13G,1.18
16,U7G G9C C12U C13A,1.3
17,U7G G9A U10C U11G C12G C13A,1.09
18,U7G G9A U10C U11G C12G C13G,1.06
19,U7G G9A U10C U11G C12G C13U,1.06
20,U7G G9A U10G U11A C12A C13U,1.09
21,U7G G9A U10G U11A C12A C13A,1.06

row,Variant,aptazyme ON/OFF ratio
1,U7G G9A U10G U11A C12A C13G,1.05
2,U7G G9A U11G C12G C13U,1.16
3,U7G G9A U11G C12G C13G,1.07
4,U7G G9A U11G C12G C13A,1.07
5,U7G G9A U10G U11A C12A,1.09
6,U7G G9A U10G U11A C12U,1.07
7,U7G G9A U10G U11A C12G,1.07
8,U7G G9A U11G C12A C13A,1.06
9,U7G G9A U11G C12A C13G,1.07
10,U7G G9A U11G C12A C13U,1.07
11,U7G G9A U10A U11A C12U C13G,1.19
12,U7G G9A U10A U11A C12U C13U,1.17
13,U7G G9A U10A U11A C12U C13A,1.12
14,U7C U11G C13G,1.03
15,U7C U11G C13A,1.06
16,U7C U11G C13U,1.03
17,U7G G9A C12G C13U,1.18
18,U7G G9A C12G C13G,1.1
19,U7G G9A C12G C13A,1.13
20,U7G G9A U10A U11C C12G C13U,1.18
21,U7G G9A U10A U11C C12G C13A,1.1

row,Variant,aptazyme ON/OFF ratio
1,U7G G9A U10A U11C C12G C13G,1.1
2,U7G G9A U10C C12A C13U,1.15
3,U7G G9A U10C C12A C13A,1.14
4,U7G G9A U10C C12A C13G,1.13
5,U7G G9C C13G,1.14
6,U7G G9C C13U,1.45
7,U7G G9C C13A,1.29
8,U7G G9A U10G U11G C12G C13A,1.11
9,U7G G9A U10G U11G C12G C13U,1.16
10,U7G G9A U10G U11G C12G C13G,1.16
11,U7C U11G C12A C13A,1.16
12,U7C U11G C12A C13U,1.17
13,U7C U11G C12A C13G,1.17
14,U7G G9C U10A C12G C13A,1.1
15,U7G G9C U10A C12G C13G,1.1
16,U7G G9C U10A C12G C13U,1.28
17,U7C U11C C13G,1.05
18,U7C U11C C13U,1.13
19,U7C U11C C13A,1.15
20,U7G C12G C13G,1.14
